Results on eleven molecules are retold here after patent US20190185537A1 (AstraZeneca / MedImmune, published 2019).

What all share (test): cell-based or functional assay
For one assay, the target named is human GLP-1 receptor (human, UniProt P43220 24-463).
In another assay the target is human glucagon receptor (human, UniProt P47871 26-477).
Assay [1] concerns the target T1, human glucose-dependent insulinotropic peptide (gastric inhibitory polypeptide) receptor (human) (UniProt P48546).
T1 sequence (looked up): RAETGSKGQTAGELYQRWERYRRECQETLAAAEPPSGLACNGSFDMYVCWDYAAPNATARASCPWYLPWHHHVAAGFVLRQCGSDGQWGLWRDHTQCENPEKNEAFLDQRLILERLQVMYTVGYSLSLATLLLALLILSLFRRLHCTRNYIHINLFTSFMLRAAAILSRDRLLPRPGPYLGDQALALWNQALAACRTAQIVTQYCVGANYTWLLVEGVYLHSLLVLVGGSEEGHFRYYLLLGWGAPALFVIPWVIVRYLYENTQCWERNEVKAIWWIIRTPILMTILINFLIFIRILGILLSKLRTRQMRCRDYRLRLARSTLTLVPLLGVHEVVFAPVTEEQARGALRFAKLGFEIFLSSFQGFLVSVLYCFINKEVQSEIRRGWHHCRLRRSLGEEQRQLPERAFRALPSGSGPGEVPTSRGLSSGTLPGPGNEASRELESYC

Numbered stars: 1 amine (or outer) side, 2 acyl side, 3 side chain; on linkers, the order of the positions; unused ones are H or OH. Side chains are listed from the residue outwards. Ends that are not written are not given here. * marks the point of attachment. γGlu = O=C(O)[C@H](CCC(=O)[*:2])N[*:1]; Palmitoyl = CCCCCCCCCCCCCCCC(=O)*; Ahx = NCCCCCC(=O)O

human glucagon receptor, sequence (P47871 26-477): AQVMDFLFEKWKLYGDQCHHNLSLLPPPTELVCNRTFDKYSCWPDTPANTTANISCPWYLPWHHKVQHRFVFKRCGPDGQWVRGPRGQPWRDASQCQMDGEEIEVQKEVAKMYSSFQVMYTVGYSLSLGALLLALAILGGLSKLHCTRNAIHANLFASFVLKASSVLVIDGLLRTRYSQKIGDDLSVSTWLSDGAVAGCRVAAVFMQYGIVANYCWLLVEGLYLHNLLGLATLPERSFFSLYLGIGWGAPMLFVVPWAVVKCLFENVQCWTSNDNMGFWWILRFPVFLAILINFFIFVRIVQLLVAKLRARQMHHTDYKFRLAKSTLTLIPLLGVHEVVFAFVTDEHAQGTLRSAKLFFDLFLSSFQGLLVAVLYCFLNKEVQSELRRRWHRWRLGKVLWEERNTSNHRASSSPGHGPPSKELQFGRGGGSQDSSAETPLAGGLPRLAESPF
human GLP-1 receptor, sequence (P43220 24-463): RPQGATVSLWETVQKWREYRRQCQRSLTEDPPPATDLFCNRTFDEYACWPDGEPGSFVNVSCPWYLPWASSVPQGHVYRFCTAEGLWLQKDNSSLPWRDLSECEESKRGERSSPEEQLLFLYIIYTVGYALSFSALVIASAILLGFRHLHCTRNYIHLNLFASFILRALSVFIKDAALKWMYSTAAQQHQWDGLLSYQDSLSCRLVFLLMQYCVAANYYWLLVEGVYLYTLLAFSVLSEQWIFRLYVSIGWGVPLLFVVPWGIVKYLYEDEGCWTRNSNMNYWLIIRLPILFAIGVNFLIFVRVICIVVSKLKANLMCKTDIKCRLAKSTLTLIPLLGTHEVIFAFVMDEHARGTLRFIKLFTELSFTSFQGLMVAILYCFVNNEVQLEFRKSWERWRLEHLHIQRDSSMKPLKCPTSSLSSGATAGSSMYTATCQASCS

For HSQGTFTSDYSEYLDSK([Ahx-Palmitoyl])RARDFVEWLERGG-NH2 (not fully specified) [g771], the cAMP EC50 (assay 1) came out at 0.0175 nM with human GLP-1 receptor, 0.00551 nM with human glucagon receptor and 37.1 nM in assay [1].

B1: g326 (peptide)
peptide: HSQGTFTSDYSKYLDSRRAQDFVQWLVAGGGGGGK(Palmitoyl)-NH2
modifications: N-terminus assumed
SMILES: CCCCCCCCCCCCCCCC(=O)NCCCC[C@H](NC(=O)CNC(=O)CNC(=O)CNC(=O)CNC(=O)CNC(=O)CNC(=O)[C@H](C)NC(=O)[C@@H](NC(=O)[C@H](CC(C)C)NC(=O)[C@H](Cc1c[nH]c2ccccc12)NC(=O)[C@H](CCC(N)=O)NC(=O)[C@@H](NC(=O)[C@H](Cc1ccccc1)NC(=O)[C@H](CC(=O)O)NC(=O)[C@H](CCC(N)=O)NC(=O)[C@H](C)NC(=O)[C@H](CCCNC(=N)N)NC(=O)[C@H](CCCNC(=N)N)NC(=O)[C@H](CO)NC(=O)[C@H](CC(=O)O)NC(=O)[C@H](CC(C)C)NC(=O)[C@H](Cc1ccc(O)cc1)NC(=O)[C@H](CCCCN)NC(=O)[C@H](CO)NC(=O)[C@H](Cc1ccc(O)cc1)NC(=O)[C@H](CC(=O)O)NC(=O)[C@H](CO)NC(=O)[C@@H](NC(=O)[C@H](Cc1ccccc1)NC(=O)[C@@H](NC(=O)CNC(=O)[C@H](CCC(N)=O)NC(=O)[C@H](CO)NC(=O)[C@@H](N)Cc1c[nH]cn1)[C@@H](C)O)[C@@H](C)O)C(C)C)C(C)C)C(N)=O
Regarding B1, the cAMP EC50 (assay 1) was 0.0247 nM in the assay with human GLP-1 receptor, 0.00282 nM with human glucagon receptor and 12.6 nM in assay [1].

B2: g726 (peptide)
peptide: HGEGTFTSDYSEYLDSK([Ahx-Palmitoyl])RARDFVEWLERGG-NH2
modifications: N-terminus assumed
SMILES: CCCCCCCCCCCCCCCC(=O)NCCCCCC(=O)NCCCC[C@H](NC(=O)[C@H](CO)NC(=O)[C@H](CC(=O)O)NC(=O)[C@H](CC(C)C)NC(=O)[C@H](Cc1ccc(O)cc1)NC(=O)[C@H](CCC(=O)O)NC(=O)[C@H](CO)NC(=O)[C@H](Cc1ccc(O)cc1)NC(=O)[C@H](CC(=O)O)NC(=O)[C@H](CO)NC(=O)[C@@H](NC(=O)[C@H](Cc1ccccc1)NC(=O)[C@@H](NC(=O)CNC(=O)[C@H](CCC(=O)O)NC(=O)CNC(=O)[C@@H](N)Cc1c[nH]cn1)[C@@H](C)O)[C@@H](C)O)C(=O)N[C@@H](CCCNC(=N)N)C(=O)N[C@@H](C)C(=O)N[C@@H](CCCNC(=N)N)C(=O)N[C@@H](CC(=O)O)C(=O)N[C@@H](Cc1ccccc1)C(=O)N[C@H](C(=O)N[C@@H](CCC(=O)O)C(=O)N[C@@H](Cc1c[nH]c2ccccc12)C(=O)N[C@@H](CC(C)C)C(=O)N[C@@H](CCC(=O)O)C(=O)N[C@@H](CCCNC(=N)N)C(=O)NCC(=O)NCC(N)=O)C(C)C
On to B2, for which the cAMP EC50 (assay 1) with human GLP-1 receptor came out at 0.00791 nM; with human glucagon receptor it was 13.1 nM; in assay [1] it was 215 nM.

B3: g715 (peptide)
peptide: HSQGTFTSDK([γGlu-Palmitoyl])SKYLDSRRAQDFVQWLVAGG-NH2
modifications: N-terminus assumed
SMILES: CCCCCCCCCCCCCCCC(=O)N[C@@H](CCC(=O)NCCCC[C@H](NC(=O)[C@H](CC(=O)O)NC(=O)[C@H](CO)NC(=O)[C@@H](NC(=O)[C@H](Cc1ccccc1)NC(=O)[C@@H](NC(=O)CNC(=O)[C@H](CCC(N)=O)NC(=O)[C@H](CO)NC(=O)[C@@H](N)Cc1c[nH]cn1)[C@@H](C)O)[C@@H](C)O)C(=O)N[C@@H](CO)C(=O)N[C@@H](CCCCN)C(=O)N[C@@H](Cc1ccc(O)cc1)C(=O)N[C@@H](CC(C)C)C(=O)N[C@@H](CC(=O)O)C(=O)N[C@@H](CO)C(=O)N[C@@H](CCCNC(=N)N)C(=O)N[C@@H](CCCNC(=N)N)C(=O)N[C@@H](C)C(=O)N[C@@H](CCC(N)=O)C(=O)N[C@@H](CC(=O)O)C(=O)N[C@@H](Cc1ccccc1)C(=O)N[C@H](C(=O)N[C@@H](CCC(N)=O)C(=O)N[C@@H](Cc1c[nH]c2ccccc12)C(=O)N[C@@H](CC(C)C)C(=O)N[C@H](C(=O)N[C@@H](C)C(=O)NCC(=O)NCC(N)=O)C(C)C)C(C)C)C(=O)O
Turning to B3, the figures for the cAMP EC50 (assay 1) (in the assay with human GLP-1 receptor; with human glucagon receptor; in assay [1]) were 0.0204 nM, 0.00253 nM and 0.998 nM, respectively.
As to HSQGTFTSDYSKYLDSRAAQK([Ahx-Palmitoyl])FVQWLERGG-NH2 (not fully specified) [g806], the cAMP EC50 (assay 1) amounted to 0.171 nM with human GLP-1 receptor, 0.0099 nM with human glucagon receptor and 105 nM in assay [1].
Consider HSQGTFTSDYSKYLDSRRAQDFVQWLVAGGGGGG-NH2 [g315], for which the results for the cAMP EC50 (assay 1) (with human GLP-1 receptor; in the assay with human glucagon receptor; in assay [1]) were 0.0273 nM, 0.00504 nM and 19.7 nM, respectively.
With HSQGTFTSDYSKYLDSRRAQDFVQWLVAGGKNNRNNIAK-NH2 [g321], the cAMP EC50 (assay 1) with human GLP-1 receptor amounted to 0.0272 nM; with human glucagon receptor, 0.0279 nM; in assay [1] it was 6.41 nM.
As to HSQGTFTSDYSKYLDSRRAQDFVQWLVAGGSSGGSS-NH2 [g316], the cAMP EC50 (assay 1) in the assay with human GLP-1 receptor was found to be 0.0314 nM; with human glucagon receptor, 0.0106 nM; in assay [1], 3.65 nM.

B4: g322 (peptide)
peptide: HSQGTFTSDYSKYLDSRRAQDFVQWLVAGGKNNRNNIAK(Palmitoyl)-NH2
modifications: N-terminus assumed
SMILES: CCCCCCCCCCCCCCCC(=O)NCCCC[C@H](NC(=O)[C@H](C)NC(=O)[C@@H](NC(=O)[C@H](CC(N)=O)NC(=O)[C@H](CC(N)=O)NC(=O)[C@H](CCCNC(=N)N)NC(=O)[C@H](CC(N)=O)NC(=O)[C@H](CC(N)=O)NC(=O)[C@H](CCCCN)NC(=O)CNC(=O)CNC(=O)[C@H](C)NC(=O)[C@@H](NC(=O)[C@H](CC(C)C)NC(=O)[C@H](Cc1c[nH]c2ccccc12)NC(=O)[C@H](CCC(N)=O)NC(=O)[C@@H](NC(=O)[C@H](Cc1ccccc1)NC(=O)[C@H](CC(=O)O)NC(=O)[C@H](CCC(N)=O)NC(=O)[C@H](C)NC(=O)[C@H](CCCNC(=N)N)NC(=O)[C@H](CCCNC(=N)N)NC(=O)[C@H](CO)NC(=O)[C@H](CC(=O)O)NC(=O)[C@H](CC(C)C)NC(=O)[C@H](Cc1ccc(O)cc1)NC(=O)[C@H](CCCCN)NC(=O)[C@H](CO)NC(=O)[C@H](Cc1ccc(O)cc1)NC(=O)[C@H](CC(=O)O)NC(=O)[C@H](CO)NC(=O)[C@@H](NC(=O)[C@H](Cc1ccccc1)NC(=O)[C@@H](NC(=O)CNC(=O)[C@H](CCC(N)=O)NC(=O)[C@H](CO)NC(=O)[C@@H](N)Cc1c[nH]cn1)[C@@H](C)O)[C@@H](C)O)C(C)C)C(C)C)[C@@H](C)CC)C(N)=O
Take B4: the cAMP EC50 (assay 1) in the assay with human GLP-1 receptor came out at 0.0106 nM; with human glucagon receptor, 0.00355 nM; in assay [1] it was 1.72 nM.
As to HSQGTFTSDYSKYLDSRRAQDFVQWLVAGGGGGGK([γGlu-Palmitoyl])-NH2 [g327], the figures for the cAMP EC50 (assay 1) (with human GLP-1 receptor; with human glucagon receptor; in assay [1]) were 0.0193 nM, 0.00232 nM and 12.8 nM, respectively.

B5: g716 (peptide)
peptide: HSQGTFTSDYK([γGlu-Palmitoyl])KYLDSRRAQDFVQWLVAGG-NH2
modifications: N-terminus assumed
SMILES: CCCCCCCCCCCCCCCC(=O)N[C@@H](CCC(=O)NCCCC[C@H](NC(=O)[C@H](Cc1ccc(O)cc1)NC(=O)[C@H](CC(=O)O)NC(=O)[C@H](CO)NC(=O)[C@@H](NC(=O)[C@H](Cc1ccccc1)NC(=O)[C@@H](NC(=O)CNC(=O)[C@H](CCC(N)=O)NC(=O)[C@H](CO)NC(=O)[C@@H](N)Cc1c[nH]cn1)[C@@H](C)O)[C@@H](C)O)C(=O)N[C@@H](CCCCN)C(=O)N[C@@H](Cc1ccc(O)cc1)C(=O)N[C@@H](CC(C)C)C(=O)N[C@@H](CC(=O)O)C(=O)N[C@@H](CO)C(=O)N[C@@H](CCCNC(=N)N)C(=O)N[C@@H](CCCNC(=N)N)C(=O)N[C@@H](C)C(=O)N[C@@H](CCC(N)=O)C(=O)N[C@@H](CC(=O)O)C(=O)N[C@@H](Cc1ccccc1)C(=O)N[C@H](C(=O)N[C@@H](CCC(N)=O)C(=O)N[C@@H](Cc1c[nH]c2ccccc12)C(=O)N[C@@H](CC(C)C)C(=O)N[C@H](C(=O)N[C@@H](C)C(=O)NCC(=O)NCC(N)=O)C(C)C)C(C)C)C(=O)O
B5: the cAMP EC50 (assay 1) was 12.9 nM with human GLP-1 receptor, 2.46 nM with human glucagon receptor and 11.8 nM in assay [1].
